# What was measured:
# [1] = biological target: fusion protein of the extracellular domain of the human inhibitory receptor CD200R fused to the Fc portion of human IgG1 (human) (UniProt Q8TD46); experiment: SPR (BIAcore 3000), fusion protein captured by anti-human Fc, antibody at 133 and 13.3 nM, bivalent analyte model
# [2] = biological target: fusion protein of the extracellular domain of the human inhibitory receptor CD200R fused to the Fc portion of human IgG1 (human) (UniProt Q8TD46); experiment: KinExA, human CD200R-Ig in solution and on the particles
# [3] = biological target: human CD200R, full length, expressed on murine mast cells (DT762) (human) (UniProt Q8TD46)
# human CD200R, full length, expressed on murine mast cells (DT762) (human), sequence (Q8TD46 other isoform, or with tags, fused parts or gaps limits assumed, form in doubt): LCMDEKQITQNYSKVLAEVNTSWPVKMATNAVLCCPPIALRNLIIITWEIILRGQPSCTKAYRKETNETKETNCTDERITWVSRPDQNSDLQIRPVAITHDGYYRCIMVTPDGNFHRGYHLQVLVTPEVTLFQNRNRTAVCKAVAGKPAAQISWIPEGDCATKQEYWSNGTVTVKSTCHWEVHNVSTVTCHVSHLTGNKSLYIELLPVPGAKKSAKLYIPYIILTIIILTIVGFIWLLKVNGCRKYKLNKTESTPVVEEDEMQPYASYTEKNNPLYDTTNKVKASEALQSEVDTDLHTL
# [4] = biological target: fusion protein of the extracellular domain of the human inhibitory receptor CD200R fused to the Fc portion of human IgG1 (human) (UniProt Q8TD46); experiment: SPR (BIAcore 3000), fusion protein captured by anti-human Fc, antibody 0.82 to 600 nM, bivalent analyte model
# fusion protein of the extracellular domain of the human inhibitory receptor CD200R fused to the Fc portion of human IgG1 (human), sequence (Q8TD46 other isoform, or with tags, fused parts or gaps limits assumed, form in doubt): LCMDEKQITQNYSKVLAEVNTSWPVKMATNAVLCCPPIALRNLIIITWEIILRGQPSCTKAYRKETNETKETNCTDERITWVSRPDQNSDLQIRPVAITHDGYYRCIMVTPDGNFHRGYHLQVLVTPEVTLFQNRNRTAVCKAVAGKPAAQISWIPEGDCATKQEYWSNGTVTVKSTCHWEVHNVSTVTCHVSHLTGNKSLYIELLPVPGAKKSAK
Binder,Kd [1] [nM],Kd [2] [nM],IC50 (read off the curve) [3] [µg/mL],Kd [4] [nM]
"DX185, rat anti-human inhibitory CD200R monoclonal antibody (antibody, V domains shown) VH: EIQLQESGPGLVKPSQSFSLTCSVTGYTITSGYDWSWIRKFPGNRMEWMGYINYSGSTVYNPSLRSRFSITRDTSKNQFFLQLNSVASEDTATYYCAKFEASNTYLYDWYFDFWGPGTMVTVSS VL: DVQMTQSPSYLAASPGESVSISCKAGKNINTNLAWYQAKPGKTNKVLIHSGSTLQSGTPSRFSGSGFGTDFTLTIRSLEPEDFAVYYCQQHNEFPLTFGSGTKLEIKR",0.202,0.126,–,–
"DX184, rat anti-human inhibitory CD200R monoclonal antibody (antibody, V domains shown) VL: DIVMTQSPTFMSISVGDRVTMSCKASQNVGSNVDWYQQKTGQSPKLLIYKASNRYTGVPDRFTGSGSGTGFTFTITNLQAEDLAVYYCMQSLSFPYTSGAGT VH: QVQLKESGPGLVQPSQTLSLTCTVSGFSLTNNGVSWVRQPPGKGLEWIAAISSGGGTFYNSALKSRLSISRDTSKSQVFLKMNSLQTEDTAIYFCARDGDWDWYFDFWGPGTMVTVSS",1.93,0.026,–,–
"DX182, rat anti-human inhibitory CD200R monoclonal antibody (antibody, V domains shown) VL: EVQMTQSPSTLTASPGESVSINCKASKNIRSYLAWYQQKPGKPNKLLIYSGSTLHSGTPSRFSGSGFGTDFTLTIRNLEPEDFGLYYCQQHHEYPLTFGSGTKLEIKR VH: EIQLQESGPGLVKPSQSLSLTCSVTGYTITSGYDWSWIRKFPGNKMEWMGYINYGGSTNYKPSLGSRISITRDTSKNQFFLQLNSVSPEDTATYYCAKYNEYKSYIYDWYFDFWGPGTMVTVSS",0.024,0.056,0.2,0.76
"DX178, rat anti-human inhibitory CD200R monoclonal antibody (antibody, V domains shown) VH: EIQLQESGPGLVKPSQSLSLTCSVTGFTITSGYDWSWIRKFPGNKMEWMGYIGFSGSTVYNPSLNSRISITRDTAKNQFFLQLNSVTTEDTATYHCAKSFVQNTFIYDWFFDFWGPGTMVTVSS VL: DVRMTQSPSNLAASPGESVSINCKASKNISKYLAWYQQKPGKANRLLICSGSTLQSGTPSRFSGSGFGTDFTLTIRNLEPEDFGLYYCQQHNEFPLTFGSGTKLEIKR",1.62,0.628,–,–

# Reference: patent US20100178296A1
